Measured values: article PMC6754406, “Ran pathway-independent regulation of mitotic Golgi disassembly by Importin-α” (Nature Communications, 2019)
Values belong to the substance of their own block, whether it stands above or below them.

What was measured:
[1] = target: GST-GM130-WT (a.a. 1-85) (human); assay: pull-down; competition: p115-CTD with GST-GM130-WT or GST-GM130-S25D and increasing concentrations of Importin-α FL (up to 40 μM); GST beads, SDS-PAGE, Coomassie blue, band intensities normalised by GST-GM130
[2] = target: GST-GM130-S25D (a.a. 1-85) (human); assay: as above
[3] = target: GST-GM130-S25D (a.a. 1-85) (human); assay: pull-down; GST-GM130 (or GST-IBB) and the recombinant partner at 1:1 molar ratio on glutathione sepharose beads, wash with 150 mM NaCl, elution with 50 mM reduced glutathione, SDS-PAGE, Coomassie blue
[4] = target: GM130-NLS phospho-S25 (synthetic peptide with a phosphate moiety on Ser-25 of GM130, a.a. 13-40) (human); assay: ITC; MicroCal iTC200, 25 °C, 20 mM HEPES pH 7.4, 1 mM DTT, with either 50 or 200 mM NaCl (which one is shown only in the figures); one-sites binding model
[5] = target: GST-GM130-S25D (a.a. 1-85) (human); assay: pull-down; 5 µM GST-GM130 with HEK293T cell lysate (RIPA buffer) and glutathione sepharose beads, washes with 150 mM NaCl, Western blot for Importin-α and Importin-β
[6] = target: GM130-NLS WT peptide (human); assay: ITC; MicroCal iTC200, 25 °C, 20 mM HEPES pH 7.4, 1 mM DTT, with either 50 or 200 mM NaCl (which one is shown only in the figures); one-sites binding model

Chain of Importin-β, recombinant, non-tagged (Q14974 whole entry): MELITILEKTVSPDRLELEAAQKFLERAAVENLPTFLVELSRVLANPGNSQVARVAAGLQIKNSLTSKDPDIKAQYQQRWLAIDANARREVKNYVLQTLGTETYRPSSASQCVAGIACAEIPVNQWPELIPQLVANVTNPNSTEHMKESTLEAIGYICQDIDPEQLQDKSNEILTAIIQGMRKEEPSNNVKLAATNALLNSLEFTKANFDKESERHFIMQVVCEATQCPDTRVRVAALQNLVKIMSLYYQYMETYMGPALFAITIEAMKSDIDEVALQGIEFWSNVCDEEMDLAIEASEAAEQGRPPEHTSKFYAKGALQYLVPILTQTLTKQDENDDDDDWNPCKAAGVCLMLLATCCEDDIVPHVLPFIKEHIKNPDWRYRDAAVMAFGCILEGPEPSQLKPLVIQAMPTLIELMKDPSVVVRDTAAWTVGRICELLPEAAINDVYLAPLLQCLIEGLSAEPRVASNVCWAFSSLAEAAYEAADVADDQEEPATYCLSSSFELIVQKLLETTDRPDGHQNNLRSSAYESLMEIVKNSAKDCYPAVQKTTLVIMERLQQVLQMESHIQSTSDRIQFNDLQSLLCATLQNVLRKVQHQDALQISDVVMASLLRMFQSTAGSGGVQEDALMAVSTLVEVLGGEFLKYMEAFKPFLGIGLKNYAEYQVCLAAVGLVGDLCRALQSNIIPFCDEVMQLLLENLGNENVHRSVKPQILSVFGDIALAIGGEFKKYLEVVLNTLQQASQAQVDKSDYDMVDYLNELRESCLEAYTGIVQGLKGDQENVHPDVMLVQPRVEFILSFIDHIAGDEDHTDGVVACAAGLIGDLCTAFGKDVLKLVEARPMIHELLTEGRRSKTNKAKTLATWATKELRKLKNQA

percent p115-CTD remaining on GM130 with 40 μM Importin-α FL [1]: 38% | fold Importin-α FL pulldown against wild-type GM130 (40 μM Importin-α FL) [2]: 2 fold | percent p115-CTD remaining on GM130 with 40 μM Importin-α FL [2]: 20% | percent of Importin-α FL pulled down relative to Importin-α(ΔIBB) [3]: 50% | fold lower dissociation constant than GM130-NLS WT [4]: 3.3 fold
Substance: Importin-α FL (full-length Importin-α), recombinant (from UniProt P52292 1-529) (natural protein)

Kd [4]: 126 nM
Substance: Importin-α(ΔIBB) (Importin-α lacking the IBB domain, a.a. 70-524) (from UniProt P52293 70-524) (domain or fragment)

fold Importin-α pulldown against wild-type GST-GM130 [5]: 1.3 fold
Substance: Importin-α, endogenous in HEK293T cells (from UniProt P52292 1-529) (natural protein)

fold lower binding constant than the wild-type GM130 peptide [4]: > 1000 fold | Kd [6]: 1200 nM
Substance: Importin-β, recombinant, non-tagged (from UniProt Q14974 1-876) (natural protein)
